Substrate in the series: CC(=O)OCC[N+](C)(C)C
Nature of the series: purified protein. The class given is biochemical, Homo sapiens.

What is called Km is the concentration of substrate that gives half-maximal velocity.

B1: acetylcholinesterase (huAChE) (Homo sapiens) (protein)
chain: EGREDAELLVTVRGGRLRGIRLKTPGGPVSAFLGIPFAEPPMGPRRFLPPEPKQPWSGVVDATTFQSVCYQYVDTLYPGFEGTEMWNPNRELSEDCLYLNVWTPYPRPTSPTPVLVWIYGGGFYSGASSLDVYDGRFLVQAERTVLVSMNYRVGAFGFLALPGSREAPGNVGLLDQRLALQWVQENVAAFGGDPTSVTLFGESAGAASVGMHLLSPPSRGLFHRAVLQSGAPNGPWATVGMGEARRRATQLAHLVGCPPGGTGGNDTELVACLRTRPAQVLVNHEWHVLPQESVFRFSFVPVVDGDFLSDTPEALINAGDFHGLQVLVGVVKDEGSYFLVYGAPGFSKDNESLISRAEFLAGVRVGVPQVSDLAAEAVVLHYTDWLHPEDPARLREALSDVVGDHNVVCPVAQLAGRLAAQGARVYAYVFEHRASTLSWPLWMGVPHGYEIEFIFGIPLDPSRNYTAEEKIFAQRLMRYWANFARTGDPNEPRDPKAPQWPPYTAGAQQYVSLDLRPLEVRRGLRAQACAFWNRFLPKLLSATDTLDEAERQWKAEFHRWSSYMVHWKNQFDHYSKQDRCSDL
notes: human recombinant, expressed in HEK 293 cells; immobilized on fused silica capillary
B1: the Km was 23.3 ± 1 µM.
